Experimental findings from patent US20200277392A1 (Hoffmann-La Roche, published 2020) are described below.

The target of test [1] is T1, human OX40 Fc(kih), monomeric Fc-linked human OX40 antigen ECD (human, UniProt P0DOX5 223-449 = IgG part).
T1 construct: Heterodimer of one OX40 ECD (aa 29-214)-AcTEV-Fc knob-Avi chain and one Fc hole chain; Biotinylated at the Avi tag for phage selection and ELISA; also called recombinant OX40 Fc (kih) receptor; biotinylated human OX40
Put plainly: ELISA, Fab-containing bacterial supernatants on biotinylated human OX40 on neutravidin plates, anti-Flag/HRP detection. How it is done: Selections were carried out over 3 or 4 rounds using constant antigen concentrations of 100 nM. […] In rounds 2 and 4, in order to avoid enrichment of binders to neutravidin, capture of antigen: phage complexes was performed by addition of 5.4×10⁷ streptavidin-coated magnetic beads. […] Fab-containing bacterial supernatants were added and binding Fabs were detected via their Flag-tags using an anti-Flag/HRP secondary antibody. […] They were bacterially expressed in a 0.5 liter culture volume, affinity purified and further characterized by SPR-analysis using BioRad's ProteOn XPR36 biosensor.

The target of test [2] is T2, human OX40 on cells (human, UniProt P43489 29-277).
T2 construct: also called CD134; OX40+ Cells
T2 sequence: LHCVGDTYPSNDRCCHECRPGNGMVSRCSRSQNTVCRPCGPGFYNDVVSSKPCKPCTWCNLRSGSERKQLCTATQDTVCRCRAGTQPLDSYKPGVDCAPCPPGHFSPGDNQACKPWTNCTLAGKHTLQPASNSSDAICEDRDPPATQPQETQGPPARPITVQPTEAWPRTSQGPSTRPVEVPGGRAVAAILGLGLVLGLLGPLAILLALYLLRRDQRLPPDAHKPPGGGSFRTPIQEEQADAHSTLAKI
Description: flow cytometry on OX40+ cells (activated human PBMC). The method, then: For labeling, cells were harvested, washed with pre-warmed (37° C.) DPBS and adjusted to a cell density of 1×10⁷ cells/mL in DPBS. eFluor670 cell proliferation dye (eBioscience, Cat.-No. 65-0840-85) was added to the suspension of naïve human PBMC at a final concentration of […] and a final cell density of 0.5×10⁷ cells/mL in DPBS. Cells were then incubated for 10 min at room temperature in the dark. To stop the labeling reaction, 4 mL heat inactivated FBS was added and cells were washed three times with T cell medium. A 2:1 mixture of 1×10⁵ resting eFluor670 labeled human PBMC and 0.5×10⁵ unlabeled activated human PBMC were then added to each well of round-bottomed suspension cell 96-well plates (Greiner bio-one, cellstar, Cat. No. 650185).
Cells were stained for 120 minutes at 4° C. in the dark in 50 μL/well 4° C. FACS buffer containing different amounts of the indicated antigen binding molecules. After three washes with 4° C. FACS buffer, cells were stained for 45 minutes at 4° C. in the dark in 25 μL/well 4° C. FACS buffer containing a mixture of fluorescently labeled anti-human CD4 (clone RPA-T4, mouse IgG1 k, BioLegend, Cat.-No. 300532), anti-human CD8 (clone RPa-T8, mouse IgGlk, BioLegend, Cat.-No. 3010441) and Fluorescein isothiocyanate (FITC)-conjugated AffiniPure anti-human IgG Fcγ-fragment-specific goat IgG F(ab′)₂ fragment (Jackson ImmunoResearch, Cat.-No. 109-096-098).
Cells were then resuspended in […] FACS-buffer containing 0.2 μg/mL DAPI (Santa Cruz Biotec, Cat. No. Sc-3598) and acquired the same day using 5-laser LSR-Fortessa (BD Bioscience with DIVA software).

Test [3] concerns the target T3, cynomolgus TnC with C-terminal Avi- and His-tags (cynomolgus, biotinylated at the C-terminal Avi-tag).
T3 construct: also called cynoTnC; cyno TnC
T3 chain: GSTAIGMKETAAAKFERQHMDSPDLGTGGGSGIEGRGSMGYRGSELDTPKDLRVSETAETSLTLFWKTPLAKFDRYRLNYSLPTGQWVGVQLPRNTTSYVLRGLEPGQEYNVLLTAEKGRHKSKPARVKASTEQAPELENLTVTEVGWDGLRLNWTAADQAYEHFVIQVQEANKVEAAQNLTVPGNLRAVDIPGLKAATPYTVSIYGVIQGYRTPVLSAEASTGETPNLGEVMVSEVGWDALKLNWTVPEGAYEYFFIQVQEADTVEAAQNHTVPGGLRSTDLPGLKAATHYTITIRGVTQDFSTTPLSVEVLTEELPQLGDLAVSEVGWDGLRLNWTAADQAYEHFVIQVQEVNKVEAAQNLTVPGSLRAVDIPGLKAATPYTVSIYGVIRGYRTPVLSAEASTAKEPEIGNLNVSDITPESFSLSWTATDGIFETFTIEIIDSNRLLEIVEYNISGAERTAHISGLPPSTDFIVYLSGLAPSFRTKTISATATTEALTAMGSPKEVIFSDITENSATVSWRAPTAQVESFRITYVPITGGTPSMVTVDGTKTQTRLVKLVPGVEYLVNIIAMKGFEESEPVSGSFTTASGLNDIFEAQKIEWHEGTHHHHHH
Put plainly: SPR Biacore T200, biotinylated TnC on SA chip, bispecific as analyte, 1:1 fit, apparent KD (bivalent binding). The method, then:
(§1) The capacity of the bispecific constructs to bind human, murine and cynomolgus TnC was analysed by surface plasmon resonance (SPR). All SPR experiments were performed on a Biacore T200 at 25° C. with HBS-EP as running buffer (0.01 M HEPES pH 7.4, 0.15 M NaCl, 3 mM EDTA, 0.005% Surfactant P20, Biacore, Freiburg/Germany).
(§2) Biotinylated human, murine or cynomolgus TnC molecules were immobilised on a SA chip to reach an immobilization level of 10 resonance units (RU).
(§3) Following immobilisation, the bispecific molecules or control molecules were immediately passed over the chip surface at concentrations ranging from 0.05-50 nM, at a flow rate of 30 μL/minute for 120 seconds and a dissociation phase of 180 seconds. The surface was regenerated using 10 mM glycine pH2.1. Bulk refractive index differences were corrected for by subtracting the response obtained in a reference flow cell, where no TnC was immobilized. Affinity/Avidity was determined under these experimental conditions using the Langmuir 1:1 curve fitting. For bivalent binding the same 1:1 fitting was used leading to an apparent KD value.

Test [4] addresses T4, mouse TnC with C-terminal Avi- and His-tags (mouse, biotinylated at the C-terminal Avi-tag).
T4 construct: the N-terminal fn5 and C-terminal fn6 parts look like the human ones; also called muTnC; murine TnC
T4 chain: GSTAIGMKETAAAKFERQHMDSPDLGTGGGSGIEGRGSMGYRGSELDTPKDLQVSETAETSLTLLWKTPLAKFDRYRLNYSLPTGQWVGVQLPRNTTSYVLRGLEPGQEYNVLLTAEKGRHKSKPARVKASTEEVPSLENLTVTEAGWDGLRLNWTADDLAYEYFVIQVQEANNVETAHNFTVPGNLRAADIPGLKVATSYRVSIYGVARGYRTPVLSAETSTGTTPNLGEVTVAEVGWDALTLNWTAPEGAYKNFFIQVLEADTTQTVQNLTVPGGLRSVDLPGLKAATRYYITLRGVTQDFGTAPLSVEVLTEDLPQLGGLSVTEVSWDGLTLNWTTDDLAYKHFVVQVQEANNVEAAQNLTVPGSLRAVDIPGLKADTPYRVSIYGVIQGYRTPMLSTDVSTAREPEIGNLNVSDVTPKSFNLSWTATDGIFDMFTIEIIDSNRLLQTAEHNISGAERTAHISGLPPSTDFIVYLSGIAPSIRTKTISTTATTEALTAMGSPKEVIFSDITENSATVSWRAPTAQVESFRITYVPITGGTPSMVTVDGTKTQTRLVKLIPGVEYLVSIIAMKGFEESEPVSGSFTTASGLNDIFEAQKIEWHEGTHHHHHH
The test is described as above. How it is done: as §1, §2, §3

Test [5] deals with T1, human OX40 Fc(kih), monomeric Fc-linked …. Put plainly: SPR (Biacore T200, 25 °C): bispecific held on immobilised human TnC; human OX40 Fc(kih) at 250 nM injected for 90 s as analyte 2. The method, then:
All SPR experiments were performed on a Biacore T200 at 25° C. with HBS-EP as running buffer (0.01 M HEPES pH 7.4, 0.15 M NaCl, 3 mM EDTA, 0.005% Surfactant P20, Biacore, Freiburg/Germany).
Biotinylated human TnC was directly coupled to a flow cell of a streptavidin (SA) sensor chip. Immobilization levels up to 1000 resonance units (RU) were used.
Bulk refractive index differences were corrected for by subtracting the response obtained in a reference flow cell, where no protein was immobilized.

B1: anti-OX40 clone 8H9, Fab (Fab, V domains shown)
VH: QVQLVQSGAEVKKPGSSVKVSCKASGGTFSSYAISWVRQAPGQGLEWMGGIIPIFGTANYAQKFQGRVTITADKSTSTAYMELSSLRSEDTAVYYCAREYGWMDYWGQGTTVTVSS
VL: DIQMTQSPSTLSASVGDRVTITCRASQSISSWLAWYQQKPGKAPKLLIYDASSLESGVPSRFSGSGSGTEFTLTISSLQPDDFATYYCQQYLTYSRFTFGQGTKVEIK
notes: Flag-tagged Fab in bacterial supernatant (phage library DP88-4); also called OX40(8H9)
Regarding B1, in test [1], the binding result was “binds”.

B2: anti-OX40 clone 1G4, Fab (Fab, V domains shown)
VH: QVQLVQSGAEVKKPGSSVKVSCKASGGTFSSYAISWVRQAPGQGLEWMGGIIPIFGTANYAQKFQGRVTITADKSTSTAYMELSSLRSEDTAVYYCAREYGSMDYWGQGTTVTVSS
VL: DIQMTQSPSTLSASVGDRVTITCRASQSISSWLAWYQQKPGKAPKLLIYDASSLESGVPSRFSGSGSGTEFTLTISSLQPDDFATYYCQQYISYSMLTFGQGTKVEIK
notes: Flag-tagged Fab in bacterial supernatant (phage library DP88-4); also called OX40(1G4)
With B2, the binding result in test [1] is given as “binds”.

B3: 49B4/TnC 18D4 P329GLALA 2 + 2 (ID7216) (bispecific antibody, human IgG1, kappa, L234A L235A)
heavy: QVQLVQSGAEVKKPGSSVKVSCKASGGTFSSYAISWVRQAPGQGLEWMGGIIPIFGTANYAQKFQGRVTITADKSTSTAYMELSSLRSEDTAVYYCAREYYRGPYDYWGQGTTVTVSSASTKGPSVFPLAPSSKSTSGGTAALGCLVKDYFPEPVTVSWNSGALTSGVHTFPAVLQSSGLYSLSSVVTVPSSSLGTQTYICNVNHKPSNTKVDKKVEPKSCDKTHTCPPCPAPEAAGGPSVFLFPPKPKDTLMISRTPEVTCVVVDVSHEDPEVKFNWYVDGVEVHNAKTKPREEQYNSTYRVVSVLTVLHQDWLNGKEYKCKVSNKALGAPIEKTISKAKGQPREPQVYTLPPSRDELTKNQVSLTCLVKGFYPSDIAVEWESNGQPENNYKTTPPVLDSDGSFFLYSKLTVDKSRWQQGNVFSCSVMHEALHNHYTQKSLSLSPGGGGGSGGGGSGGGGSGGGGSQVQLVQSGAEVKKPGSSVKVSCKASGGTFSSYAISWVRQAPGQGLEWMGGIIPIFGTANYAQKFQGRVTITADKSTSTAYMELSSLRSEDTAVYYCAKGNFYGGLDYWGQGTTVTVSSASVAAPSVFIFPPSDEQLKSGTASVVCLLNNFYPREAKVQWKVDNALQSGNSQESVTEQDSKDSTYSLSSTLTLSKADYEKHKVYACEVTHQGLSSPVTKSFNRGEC
light 1: DIQMTQSPSTLSASVGDRVTITCRASQSISSWLAWYQQKPGKAPKLLIYDASSLESGVPSRFSGSGSGTEFTLTISSLQPDDFATYYCQQYSSQPYTFGQGTKVEIKRTVAAPSVFIFPPSDEQLKSGTASVVCLLNNFYPREAKVQWKVDNALQSGNSQESVTEQDSKDSTYSLSSTLTLSKADYEKHKVYACEVTHQGLSSPVTKSFNRGEC
light 2: DIQMTQSPSTLSASVGDRVTITCRASQSISSWLAWYQQKPGKAPKLLIYDASSLESGVPSRFSGSGSGTEFTLTISSLQPDDFATYYCQQNKKFPSGTFGQGTKVEIKSSASTKGPSVFPLAPSSKSTSGGTAALGCLVKDYFPEPVTVSWNSGALTSGVHTFPAVLQSSGLYSLSSVVTVPSSSLGTQTYICNVNHKPSNTKVDKKVEPKSCD
notes: huIgG1 P329G LALA; 49B4 VHCH1-Fc-(G4S)4-18D4 VHCL heavy chain, 49B4 VLCL light chain, 18D4 VLCH1 crossed light chain; also called 2 + 2 (49B4/18D4); 49B4/18D4 2 + 2
In test [2], B3 returned an EC50 of 6.59 nM. In addition, the Kd was found to be 0.28 nM in test [3] and 0.3 nM in test [4]. The binding result in test [5] is listed as “binds”.

B4: 49B4/TnC 18D4 P329GLALA 4 + 1 (ID7745) (bispecific antibody, human IgG1, kappa, L234A L235A)
heavy 1: not shown
heavy 2: not shown
light: DIQMTQSPSTLSASVGDRVTITCRASQSISSWLAWYQQKPGKAPKLLIYDASSLESGVPSRFSGSGSGTEFTLTISSLQPDDFATYYCQQYSSQPYTFGQGTKVEIKRTVAAPSVFIFPPSDEQLKSGTASVVCLLNNFYPREAKVQWKVDNALQSGNSQESVTEQDSKDSTYSLSSTLTLSKADYEKHKVYACEVTHQGLSSPVTKSFNRGEC
Regarding B4, the binding result in test [5] is recorded as “binds”.

B5: anti-OX40 clone 17A9, Fab (Fab, V domains shown)
VH: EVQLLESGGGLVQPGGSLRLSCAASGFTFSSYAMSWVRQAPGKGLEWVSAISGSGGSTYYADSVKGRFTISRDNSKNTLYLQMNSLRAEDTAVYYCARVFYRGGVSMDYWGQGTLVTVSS
VL: SSELTQDPAVSVALGQTVRITCQGDSLRSYYASWYQQKPGQAPVLVIYGKNNRPSGIPDRFSGSSSGNTASLTITGAQAEDEADYYCNSRVMPHNRVFGGGTKLTV
notes: Flag-tagged Fab in bacterial supernatant (phage library lambda-DP47); also called OX40(17A9)
As to B5, the binding result in test [1] was “binds”.

B6: anti-OX40 clone 20B7, Fab (Fab, V domains shown)
VH: QVQLVQSGAEVKKPGSSVKVSCKASGGTFSSYAISWVRQAPGQGLEWMGGIIPIFGTANYAQKFQGRVTITADKSTSTAYMELSSLRSEDTAVYYCARVNYPYSYWGDFDYWGQGTTVTVSS
VL: DIQMTQSPSTLSASVGDRVTITCRASQSISSWLAWYQQKPGKAPKLLIYDASSLESGVPSRFSGSGSGTEFTLTISSLQPDDFATYYCQQYQAFSLTFGQGTKVEIK
notes: Flag-tagged Fab in bacterial supernatant (phage library DP88-4); also called OX40(20B7)
On to B6, for which the binding result in test [1] is given as “binds”.

B7: anti-OX40 clone 49B4, Fab (Fab, V domains shown)
VH: QVQLVQSGAEVKKPGSSVKVSCKASGGTFSSYAISWVRQAPGQGLEWMGGIIPIFGTANYAQKFQGRVTITADKSTSTAYMELSSLRSEDTAVYYCAREYYRGPYDYWGQGTTVTVSS
VL: DIQMTQSPSTLSASVGDRVTITCRASQSISSWLAWYQQKPGKAPKLLIYDASSLESGVPSRFSGSGSGTEFTLTISSLQPDDFATYYCQQYSSQPYTFGQGTKVEIK
notes: Flag-tagged Fab in bacterial supernatant (phage library DP88-4); also called OX40(49B4)
Take B7: the binding result in test [1] is reported as “binds”.
